Patent US7521047 (GPC BIOTECH, dated 2009)

T1: human MHC class II DR protein (DRA*0101/DRB1*0401), purified from PRIESS cells (human, UniProt P01903 26-254; P01911 30-266, limits assumed)
T1 construct: mature; also called HLA-DR protein; MHCII
T1 MHC II alpha: not shown
T1 MHC II beta: not shown

T2: HLA-DR (DRA*0101/DRB1*0401) on PRIESS cells (human, UniProt P01903 26-254; P01911 30-266)
T2 MHC II alpha: not shown
T2 MHC II beta: not shown


Experiments:
[1] = molecular target: T1, human MHC class II DR protein …; test: ELISA, coated antigen, Fab 100 ng/well, read at 370 nm
Method: After washing in PBS the anti-human IgG F(ab')_2-peroxidase-conjugate at a 1:10,000 dilution in TBS (supplemented with 5% w/v non-fat drymilk/0.05% v/v Tween 20) was added to each well for 1 h. Final washes were carried out in PBS followed the addition the substrate POD (Roche).

[2] = molecular target: T1, human MHC class II DR protein …; test: SPR (BIAcore), MHCII on CM5 chip
[3] = molecular target: HLA-DR on MHH-CALL-4 cells (human); test: cell-based or functional assay
[4] = molecular target: T1, human MHC class II DR protein …; test: SPR (BIAcore), 3 preparations on 3 chips (500, 4000, 3000 RU)
[5] = molecular target: T3, chimeric 0401-IE class II molecule on cells of transgenic mice (human/murine chimera); test: cell-based or functional assay
[6] = molecular target: T1, human MHC class II DR protein …; test: SPR (BIAcore), IgG4 over MHCII on CM5 chip
[7] = molecular target: HLA-DR on GRANTA-519 cells (human); test: cell-based or functional assay
[8] = molecular target: HLA-DR on BJAB cells (human); test: cell-based or functional assay
[9] = molecular target: HLA-DR on NALM-1 cells (human); test: cell-based or functional assay
[10] = molecular target: HLA-DR on MHH-CALL-4 cells (human); test: cell-based or functional assay; remark: listed apart in the source
[11] = molecular target: HLA-DR on L-428 cells (human); test: cell-based or functional assay
[12] = molecular target: HLA-DR on EOL-1 cells (human); test: cell-based or functional assay
[13] = molecular target: T2, HLA-DR (DRA*0101/DRB1*0401) on PRIESS …; test: cell-based or functional assay
[14] = molecular target: HLA-DR on RPMI-8226 cells (human); test: cell-based or functional assay
[15] = molecular target: HLA-DR on HC-1 cells (human); test: cell-based or functional assay
[16] = molecular target: HLA-DR on L1236 cells (human); test: cell-based or functional assay
[17] = molecular target: HLA-DR on ARH-77 cells (human); test: cell-based or functional assay
[18] = molecular target: HLA-DR on DOHH-2 cells (human); test: cell-based or functional assay
[19] = molecular target: HLA-DR on SR-786 cells (human); test: cell-based or functional assay
[20] = molecular target: HLA-DR on HD-MY-Z cells (human); test: cell-based or functional assay
[21] = molecular target: HLA-DR on L-363 cells (human); test: cell-based or functional assay
[22] = molecular target: HLA-DR on LP-1 cells (human); test: cell-based or functional assay
[23] = molecular target: HLA-DR on HDLM-2 cells (human); test: cell-based or functional assay
[24] = molecular target: HLA-DR on KARPAS-422 cells (human); test: cell-based or functional assay
[25] = molecular target: HLA-DR on MHH-PREB-1 cells (human); test: cell-based or functional assay
[26] = molecular target: HLA-DR on BONNA-12 cells (human); test: cell-based or functional assay
[27] = molecular target: HLA-DR on MN-60 cells (human); test: cell-based or functional assay
[28] = molecular target: HLA-DR on RAJI cells (human); test: cell-based or functional assay
[29] = molecular target: HLA-DR on KARPAS-299 cells (human); test: cell-based or functional assay
[30] = molecular target: HLA-DR on KM-H2 cells (human); test: cell-based or functional assay
[31] = molecular target: T1, human MHC class II DR protein …; test: BiaCore, IgG4
Method: The affinities for anti-HLA antibody fragments of the invention were measured as follows. All measurements were conducted in HBS buffer (20 mM HEPES, 150 mM NaCl, pH 7.4) at a flow rate of 20 µl/min at 25° C. on a BIAcore3000 instrument (Biacore AB, Sweden). MHC class II DR protein (prepared as example 1) was diluted in 100 mM sodium acetate pH 4.5 to a concentration of […], and coupled to a CM5 chip (Biacore AB) using standard EDC-NHS coupling chemistry with subsequent ethanolamine treatment as manufacturers directions. The coating density of MHCII was adjusted to between 500 and 4000 RU. Affinities were measured by injection of 5 different concentrations of the different antibodies and using the standard software of the Biacore instrument. Regeneration of the coupled surface was achieved using 10 mM glycine pH 2.3 and 7.5 mM NaOH.

[32] = molecular target: T4, BSA (bovine, UniProt P02769 25-607); test: ELISA, purified coated protein, OD at 370 nm minus background
T4 construct: negative control antigen; also called bovine serum albumine
T4 sequence (P02769 25-607 limits assumed): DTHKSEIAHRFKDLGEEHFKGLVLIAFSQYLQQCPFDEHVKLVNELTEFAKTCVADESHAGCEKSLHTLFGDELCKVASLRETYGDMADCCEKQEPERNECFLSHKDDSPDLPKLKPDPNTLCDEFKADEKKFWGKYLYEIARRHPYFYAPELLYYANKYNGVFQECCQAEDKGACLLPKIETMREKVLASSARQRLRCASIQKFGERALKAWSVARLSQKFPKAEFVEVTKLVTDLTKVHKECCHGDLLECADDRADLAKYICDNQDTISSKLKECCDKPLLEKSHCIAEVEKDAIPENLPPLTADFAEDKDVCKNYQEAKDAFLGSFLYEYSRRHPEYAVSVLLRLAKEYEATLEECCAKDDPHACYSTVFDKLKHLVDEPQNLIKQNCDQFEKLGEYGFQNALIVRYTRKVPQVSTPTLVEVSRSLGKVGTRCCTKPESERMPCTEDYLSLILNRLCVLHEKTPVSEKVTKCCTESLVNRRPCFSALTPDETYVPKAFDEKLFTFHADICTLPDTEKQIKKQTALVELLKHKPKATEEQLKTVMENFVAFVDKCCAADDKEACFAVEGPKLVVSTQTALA

[33] = molecular target: T3, chimeric 0401-IE class II molecule on …; test: cell-based or functional assay; remark: listed apart in the source
[34] = molecular target: T2, HLA-DR (DRA*0101/DRB1*0401) on PRIESS …; test: cell-based or functional assay
[35] = molecular target: T1, human MHC class II DR protein …; test: SPR (BIAcore), scFv, chip density 500 RU MHCII

Row | Binder | IC50 of inhibition of IL-2 secretion from T-Hyb 1 cells [5] | Maximum inhibition(%) of IL-2 secretion [5] [%] | Kd [6] [nM] | koff [6] [s⁻¹] | kon [6] [M⁻¹ s⁻¹] | % Killing by mAb, 50 nM, 4 h [7] [%] | % Killing by mAb, 50 nM, 4 h [8] [%] | % Killing by mAb, 50 nM, 4 h [9] [%] | % Killing by mAb, 50 nM, 4 h [10] [%] | % Killing by mAb, 50 nM, 4 h [11] [%] | % Killing by mAb, 50 nM, 4 h [12] [%] | % Killing by mAb, 50 nM, 4 h [13] [%] | % Killing by mAb, 50 nM, 4 h [14] [%] | % Killing by mAb, 50 nM, 4 h [15] [%] | % Killing by mAb, 50 nM, 4 h [16] [%] | % Killing by mAb, 50 nM, 4 h [17] [%] | % Killing by mAb, 50 nM, 4 h [18] [%] | % Killing by mAb, 50 nM, 4 h [19] [%] | % Killing by mAb, 50 nM, 4 h [20] [%] | % Killing by mAb, 50 nM, 4 h [21] [%] | further results
1 | MS-GPC-8-6 Fab (Fab, V domains shown, Fab: VH-CH1 with FLAG tag and STREP tag II, VL-CL; VH residue 1 is Q in Fab) VH: QVQLKESGPALVKPTQTLTLTCTFSGFSLSTSGVGVGWIRQPPGKALEWLALIDWDDDKYYSTSLKTRLTISKDTSKNQVVLTMTNMDPVDTATYYCARSPRYRGAFDYWGQGTLVTVSS VL: DIVLTQPPSVSGAPGQRVTISCSGSSSNIGSNYVSWYQQLPGTAPKLLIYDNNQRPSGVPDRFSGSKSGTSASLAITGLQSEDEADYYCQSYDYDHYVFGGGTKLTVLG | 20 nM (half the concentration of the Fab) | 100 | – | – | – | – | – | – | – | – | – | – | – | – | – | – | – | – | – | – | ELISA signal [1]: 1.31; Kd [2]: 58.6 nM; koff [2]: 0.00548 s⁻¹; kon [2]: 96000 M⁻¹ s⁻¹; maximum capacity to kill MHH-Call 4 cells [3]: 76%; Kd [4]: 58.6 nM; koff [4]: 0.0055 s⁻¹; kon [4]: 96000 M⁻¹ s⁻¹
2 | MS-GPC-8-6-13 IgG4 (antibody, V domains shown, human IgG4 (constant region EMBL K01316) with lambda constant region (EMBL M18645), from CHO-K1 cells; also called 305D3; IgG form of MS-GPC-8-6-13) VH: QVQLKESGPALVKPTQTLTLTCTFSGFSLSTSGVGVGWIRQPPGKALEWLALIDWDDDKYYSTSLKTRLTISKDTSKNQVVLTMTNMDPVDTATYYCARSPRYRGAFDYWGQGTLVTVSS VL: DIVLTQPPSVSGAPGQRVTISCSGSESNIGANYVTWYQQLPGTAPKLLIYDNNQRPSGVPDRFSGSKSGTSASLAITGLQSEDEADYYCQSYDYDHYVFGGGTKLTVLG | 0.42 nM | 100 | 0.5 | 3e-05 | 70000 | 73 | 64 | 65 | 43 | 92 | 53 | 74 | 19 | 93 | 66 | 87 | 53 | 26 | 72 | 19 | % Killing by mAb, 50 nM, 4 h [22]: 73%; % Killing by mAb, 50 nM, 4 h [23]: 90%; % Killing by mAb, 50 nM, 4 h [24]: 71%; % Killing by mAb, 50 nM, 4 h [25]: 11%; % Killing by mAb, 50 nM, 4 h [26]: 86%; % Killing by mAb, 50 nM, 4 h [27]: 67%; % Killing by mAb, 50 nM, 4 h [28]: 83%; % Killing by mAb, 50 nM, 4 h [29]: 76%; % Killing by mAb, 50 nM, 4 h [30]: 87%; Kd [31]: 0.5 nM; koff [31]: 3.3e-05 s⁻¹; kon [31]: 71000 M⁻¹ s⁻¹; binding result [32]: no binding
3 | MS-GPC-8-10-57 IgG4 (antibody, V domains shown, also called 1C7277; IgG form of MS-GPC-8-10-57) VH: QVQLKESGPALVKPTQTLTLTCTFSGFSLSTSGVGVGWIRQPPGKALEWLALIDWDDDKYYSTSLKTRLTISKDTSKNQVVLTMTNMDPVDTATYYCARSPRYRGAFDYWGQGTLVTVSS VL: DIVLTQPPSVSGAPGQRVTISCSGSESNIGNNYVQWYQQLPGTAPKLLIYDNNQRPSGVPDRFSGSKSGTSASLAITGLQSEDEADYYCQSYDLIRHVFGGGTKLTVLG | 0.31 nM | 100 | 0.6 | 4e-05 | 70000 | 78 | 67 | 78 | 46 | 91 | 49 | 93 | 26 | 86 | 66 | 88 | 60 | 44 | 57 | 24 | % Killing by mAb, 50 nM, 4 h [22]: 70%; % Killing by mAb, 50 nM, 4 h [23]: 84%; % Killing by mAb, 50 nM, 4 h [24]: 68%; % Killing by mAb, 50 nM, 4 h [25]: 8%; % Killing by mAb, 50 nM, 4 h [26]: 91%; % Killing by mAb, 50 nM, 4 h [27]: 66%; % Killing by mAb, 50 nM, 4 h [28]: 86%; % Killing by mAb, 50 nM, 4 h [29]: 79%; % Killing by mAb, 50 nM, 4 h [30]: 88%; IC50 value for inhibition of T cell proliferation [33]: 11 nM; Kd [31]: 0.3 nM; koff [31]: 0.00031 s⁻¹; EC50 of cell killing, IgG4 [34]: 1.1 nM; binding result [32]: no binding
4 | MS-GPC-1 scFv (scFv) EVQLKESGPALVKPTQTLTLTCTFSGFSLSTSGVGVGWIRQPPGKALEWLALIDWDDDKYYSTSLKTRLTISKDTSKNQVVLTMTNMDPVDTATYYCARQYGHRGGFDHWGQGTLVTVSSAGGGSGGGGSGGGGSGGGGSDIVLTQPPSVSGAPGQRVTISCSGSSSNIGSNYVSWYQQLPGTAPKLLIYDNNQRPSGVPDRFSGSKSGTSASLAITGLQSEDEADYYCQSYDFNESVFGGGTKLTVLG | – | – | – | – | – | – | – | – | – | – | – | – | – | – | – | – | – | – | – | – | Kd [35]: 1500 nM; koff [35]: 0.061 s⁻¹; kon [35]: 41300 M⁻¹ s⁻¹
